T1: His6-SUMO-Sse1 (yeast (S. cerevisiae), UniProt P32589 1-693)
T1 construct: Sse1, yeast Hsp110 nucleotide exchange factor, Uniprot ID P32589; Held on the Ni-NTA BLI sensor through the His6-SUMO tag; also called His-Sse1; His-See1; source: recombinant, purified as Sse1 with the proteolytic cleavage of the tag omitted
T1 sequence (looked up): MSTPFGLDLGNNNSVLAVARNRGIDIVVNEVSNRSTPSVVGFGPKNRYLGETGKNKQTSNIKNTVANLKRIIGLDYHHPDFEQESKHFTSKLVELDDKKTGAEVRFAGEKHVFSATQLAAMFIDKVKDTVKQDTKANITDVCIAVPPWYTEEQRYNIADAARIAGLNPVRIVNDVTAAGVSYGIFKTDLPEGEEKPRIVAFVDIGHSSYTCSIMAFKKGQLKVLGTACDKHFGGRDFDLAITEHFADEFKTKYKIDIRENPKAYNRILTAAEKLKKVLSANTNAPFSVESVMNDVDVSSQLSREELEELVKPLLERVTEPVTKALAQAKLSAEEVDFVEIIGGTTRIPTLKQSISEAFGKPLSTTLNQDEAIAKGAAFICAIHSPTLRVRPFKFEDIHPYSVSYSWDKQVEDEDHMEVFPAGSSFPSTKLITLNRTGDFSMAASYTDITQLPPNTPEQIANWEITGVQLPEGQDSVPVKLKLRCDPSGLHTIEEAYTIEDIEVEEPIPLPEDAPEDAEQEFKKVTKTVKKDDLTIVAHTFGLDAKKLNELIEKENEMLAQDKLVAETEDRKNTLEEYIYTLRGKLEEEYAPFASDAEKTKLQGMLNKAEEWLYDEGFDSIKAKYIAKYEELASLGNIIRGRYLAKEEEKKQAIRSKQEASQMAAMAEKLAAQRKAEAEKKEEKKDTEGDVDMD

B1: Sis1 immobilised through the His6-SUMO tag (natural protein, yeast (S. cerevisiae), UniProt P25294 1-352, looked up)
chain: MVKETKLYDLLGVSPSANEQELKKGYRKAALKYHPDKPTGDTEKFKEISEAFEILNDPQKREIYDQYGLEAARSGGPSFGPGGPGGAGGAGGFPGGAGGFSGGHAFSNEDAFNIFSQFFGGSSPFGGADDSGFSFSSYPSGGGAGMGGMPGGMGGMHGGMGGMPGGFRSASSSPTYPEEETVQVNLPVSLEDLFVGKKKSFKIGRKGPHGASEKTQIDIQLKPGWKAGTKITYKNQGDYNPQTGRRKTLQFVIQEKSHPNFKRDGDDLIYTLPLSFKESLLGFSKTIQTIDGRTLPLSRVQPVQPSQTSTYPGQGMPTPKNPSQRGNLIVKYKVDYPISLNDAQKRAIDENF
notes: Sis1, yeast class B J-domain protein, Uniprot ID P25294; also called His-Sis1; class B JDP
B2: Sse1 (natural protein, yeast (S. cerevisiae), UniProt P32589 1-693, looked up)
chain: T1 sequence (looked up)
B3: Ssa1 (natural protein)
chain: not shown
notes: Ssa1, yeast Hsp70 chaperone, Uniprot ID P10591; also called Hsp70; yeast Hsp70; source: recombinant, expressed from pCA533-His6-SUMO-SSA1, purified using published protocols (Andréasson et al., 2008a)

Legend:
Ssa1 [1] = molecular target: B3; assay: BLI; His-Sis1 (0.4 µM, to saturation) on the Ni-NTA sensor through the His6-SUMO tag; 1 µM Ssa1 with increasing concentrations of Sse1 or Sse1-2; buffer A with 5 mM ATP and 2 mM DTT; conditions: both partners purified
Sequence of Ssa1 (P10591 whole entry): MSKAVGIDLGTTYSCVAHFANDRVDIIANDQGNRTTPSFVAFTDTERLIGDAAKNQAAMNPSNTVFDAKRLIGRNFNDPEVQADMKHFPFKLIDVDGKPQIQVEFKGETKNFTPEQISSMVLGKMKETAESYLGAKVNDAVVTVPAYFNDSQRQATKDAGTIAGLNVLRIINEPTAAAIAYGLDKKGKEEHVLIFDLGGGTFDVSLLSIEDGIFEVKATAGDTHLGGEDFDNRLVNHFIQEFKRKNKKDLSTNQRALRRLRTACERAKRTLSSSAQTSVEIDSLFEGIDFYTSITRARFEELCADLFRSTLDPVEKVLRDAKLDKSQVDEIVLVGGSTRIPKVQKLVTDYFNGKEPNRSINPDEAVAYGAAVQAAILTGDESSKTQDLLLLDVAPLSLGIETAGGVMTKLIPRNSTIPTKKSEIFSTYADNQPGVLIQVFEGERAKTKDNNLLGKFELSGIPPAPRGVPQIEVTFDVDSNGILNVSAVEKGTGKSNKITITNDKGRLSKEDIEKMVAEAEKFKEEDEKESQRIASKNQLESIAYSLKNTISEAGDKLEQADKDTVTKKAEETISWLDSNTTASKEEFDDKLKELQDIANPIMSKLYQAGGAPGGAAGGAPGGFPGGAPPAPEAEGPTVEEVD

Ssa1 [2] = molecular target: B3; assay: cell-based or functional assay
Sse1 = molecular target: B2; assay: BLI; His-Sis1 (0.4 µM, to saturation) on the Ni-NTA sensor through the His6-SUMO tag; 1 µM Ssa1 with increasing concentrations of Sse1 or Sse1-2; buffer A with 5 mM ATP and 2 mM DTT; conditions: both partners purified
His6-SUMO-Sse1 = molecular target: T1, His6-SUMO-Sse1; assay: BLI; His-Sse1 (2.5 µM) or His-Sse1-2 (1 µM) on the Ni-NTA sensor through the His6-SUMO tag; Ssa1 at 32-16,000 nM; level of binding fitted with a one site-specific binding model; buffer A with 5 mM ATP and 2 mM DTT; conditions: both partners purified

Binder: B1
- binding result (Ssa1 [1]): binds

Binder: B2
- inhibition of the refolding of aggregated luciferase by Ssa1-Ydj1 (1 µM each), titration of Sse1, activity after 1 hr (Ssa1 [2]): 0.1 µM

Binder: B3
- binding result (Sse1): binds
- binding result (His6-SUMO-Sse1): binds

Source: PMC11479587, “Early steps of protein disaggregation by Hsp70 chaperone and class B J-domain proteins are shaped by Hsp110” (eLife, 2024)
